According to patent US20260167693A1 (ANGELES THERAPEUTICS, published 2026):
Where a chain is given by its changes, count along the chain named. Numbers in names are those of the source.

Target: T1, CD19-ECD-GGSG-NLuc-AcV5 (human)
T1 construct: also called CD19-GGSG-NLuc-AcV5; Flag-CD19-GGSG-NLuc-AcV5
T1 chain: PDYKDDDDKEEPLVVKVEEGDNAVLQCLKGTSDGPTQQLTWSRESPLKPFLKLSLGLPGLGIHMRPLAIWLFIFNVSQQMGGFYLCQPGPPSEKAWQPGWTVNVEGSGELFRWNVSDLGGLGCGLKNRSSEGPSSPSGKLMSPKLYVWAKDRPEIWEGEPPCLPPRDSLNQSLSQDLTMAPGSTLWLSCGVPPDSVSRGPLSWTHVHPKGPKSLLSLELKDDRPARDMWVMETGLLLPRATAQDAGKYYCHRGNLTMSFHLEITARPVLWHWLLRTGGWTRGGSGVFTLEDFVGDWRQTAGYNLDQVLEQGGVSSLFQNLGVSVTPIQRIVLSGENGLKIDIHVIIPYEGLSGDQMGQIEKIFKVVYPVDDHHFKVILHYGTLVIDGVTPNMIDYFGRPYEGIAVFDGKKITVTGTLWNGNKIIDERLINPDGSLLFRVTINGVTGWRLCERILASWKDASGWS
Test: NLuc binding assay, SIR on Jurkat-NFAT-GFP cells

B1: CD8SP-FMC63-vL-V5-[hTCRb-KACIAH]-F-P2A-SP-FMC63-vH-Myc-[hTCRa-CSDVP]-F-F2A-PAC (010616-C01)[SEQ ID NO:1200] (other)
TCR beta: DIQMTQTTSSLSASLGDRVTISCRASQDISKYLNWYQQKPDGTVKLLIYHTSRLHSGVPSRFSGSGSGTDYSLTISNLEQEDIATYFCQQGNTLPYTFGGGTKLEITGKPIPNPLLGLDSTGSGEDLKNVFPPEVAVFEPSKAEIAHTQKATLVCLATGFYPDHVELSWWVNGKEVHSGVCTDPQPLKEQPALNDSRYCLSSRLRVSATFWQNPRNHFRCQVQFYGLSENDEWTQDRAKPVTQIVSAEAWGRADCGITSASYHQGVLSATILYEILLGKATLYAVLVSALVLMAMVKRKDSRG
TCR alpha: EVKLQESGPGLVAPSQSLSVTCTVSGVSLPDYGVSWIRQPPRKGLEWLGVIWGSETTYYNSALKSRLTIIKDNSKSQVFLKMNSLQTDDTAIYYCAKHYYYGGSYAMDYWGQGTSVTVSSEQKLISEEDGSGIQNPDPAVYQLRDSKSSDKSVCLFTDFDSQTNVSQSKDSDVYITDKCVLDMRSMDFKSNSAVAWSNKSDFACANAFNNSIIPEDTFFPSSDVPCDVKLVEKSFETDTNLNFQNLSVIGFRILLLKVAGFNLLMTLRLWSS
notes: Polyprotein PRT 3435; also called 102615-C08
CD19-GGSG-NLuc (RLU): 6840 RLU

B2: CD8SP-FMC63-vL-V5-[hTCRb-KACIAH]-F-P2A-SP-FMC63-vH-[GSG-hTCRa-T48C-opt]-F-F2A-PAC (other)
TCR beta: B1 TCR beta
TCR alpha: EVKLQESGPGLVAPSQSLSVTCTVSGVSLPDYGVSWIRQPPRKGLEWLGVIWGSETTYYNSALKSRLTIIKDNSKSQVFLKMNSLQTDDTAIYYCAKHYYYGGSYAMDYWGQGTSVTVSSGSGIQNPDPAVYQLRDSKSSDKSVCLFTDFDSQTNVSQSKDSDVYITDKCVLDMRSMDFKSNSAVAWSNKSDFACANAFNNSIIPEDTFFPSPESSCDVKLVEKSFETDTNLNFQNLSVIGFRILLLKVAGFNLLMTLRLWSS
notes: Polyprotein PRT 12436; also called 110916-M04
CD19-GGSG-NLuc (RLU): 20500 RLU

B3: CD8SP-FMC63-vL-GSG-hTCRb-RAC-F-P2A-SP-FMC63-vH-Myc-[hTCRa-CSDVP]-F-F2A-PAC (other)
TCR beta: DIQMTQTTSSLSASLGDRVTISCRASQDISKYLNWYQQKPDGTVKLLIYHTSRLHSGVPSRFSGSGSGTDYSLTISNLEQEDIATYFCQQGNTLPYTFGGGTKLEITGSGEDLKNVFPPEVAVFEPSRAEIAHTQKATLVCLATGFYPDHVELSWWVNGKEVHSGVCTDPQPLKEQPALNDSRYCLSSRLRVSATFWQNPRNHFRCQVQFYGLSENDEWTQDRAKPVTQIVSAEAWGRADCGFTSESYQQGVLSATILYEILLGKATLYAVLVSALVLMAMVKRKDSRG
TCR alpha: B1 TCR alpha
notes: Polyprotein PRT 12447; also called 121516-W05
CD19-GGSG-NLuc (RLU): 17200 RLU

B4: CD8SP-FMC63-vL-[hTCRb-S57C-opt]-F-P2A-SP-FMC63-vH-Myc-[hTCRa-CSDVP]-F-F2A-PAC (other)
TCR beta: DIQMTQTTSSLSASLGDRVTISCRASQDISKYLNWYQQKPDGTVKLLIYHTSRLHSGVPSRFSGSGSGTDYSLTISNLEQEDIATYFCQQGNTLPYTFGGGTKLEITEDLKNVFPPEVAVFEPSEAEISHTQKATLVCLATGFYPDHVELSWWVNGKEVHSGVCTDPQPLKEQPALNDSRYCLSSRLRVSATFWQNPRNHFRCQVQFYGLSENDEWTQDRAKPVTQIVSAEAWGRADCGFTSESYQQGVLSATILYEILLGKATLYAVLVSALVLMAMVKRKDSRG
TCR alpha: B1 TCR alpha
notes: Polyprotein PRT 12438; also called 110916-P02
CD19-GGSG-NLuc (RLU): 2180 RLU

B5: CD8SP-FMC63-vL-V5-[hTCRb-KACIAH]-F-P2A-SP-FMC63-vH-Myc4-[hTCRα-SD]-F-F2A-PAC (other)
TCR beta: B1 TCR beta
TCR alpha: EVKLQESGPGLVAPSQSLSVTCTVSGVSLPDYGVSWIRQPPRKGLEWLGVIWGSETTYYNSALKSRLTIIKDNSKSQVFLKMNSLQTDDTAIYYCAKHYYYGGSYAMDYWGQGTSVTVSSEQKLISEEDLGSGIQNPDPAVYQLRDSKSSDKSVCLFTDFDSQTNVSQSKDSDVYITDKTVLDMRSMDFKSNSAVAWSNKSDFACANAFNNSIIPEDTFFPSSDSSCDVKLVEKSFETDTNLNFQNLSVIGFRILLLKVAGFNLLMTLRLWSS
notes: Polyprotein PRT 12444; also called 120916-R01
CD19-GGSG-NLuc (RLU): 2660 RLU

B6: CD8SP-FMC63-vL-PG4SP-v2-[hTCRb-KACIAH]-F-P2A-SP-FMC63-vH-PG4SP-[hTCRa-CSDVP]-F-F2A-PAC (other)
TCR beta: DIQMTQTTSSLSASLGDRVTISCRASQDISKYLNWYQQKPDGTVKLLIYHTSRLHSGVPSRFSGSGSGTDYSLTISNLEQEDIATYFCQQGNTLPYTFGGGTKLEITPGGGGSPEDLKNVFPPEVAVFEPSKAEIAHTQKATLVCLATGFYPDHVELSWWVNGKEVHSGVCTDPQPLKEQPALNDSRYCLSSRLRVSATFWQNPRNHFRCQVQFYGLSENDEWTQDRAKPVTQIVSAEAWGRADCGITSASYHQGVLSATILYEILLGKATLYAVLVSALVLMAMVKRKDSRG
TCR alpha: EVKLQESGPGLVAPSQSLSVTCTVSGVSLPDYGVSWIRQPPRKGLEWLGVIWGSETTYYNSALKSRLTIIKDNSKSQVFLKMNSLQTDDTAIYYCAKHYYYGGSYAMDYWGQGTSVTVSSPGGGGSPIQNPDPAVYQLRDSKSSDKSVCLFTDFDSQTNVSQSKDSDVYITDKCVLDMRSMDFKSNSAVAWSNKSDFACANAFNNSIIPEDTFFPSSDVPCDVKLVEKSFETDTNLNFQNLSVIGFRILLLKVAGFNLLMTLRLWSS
notes: Polyprotein PRT 12433; also called 040617-A09
CD19-GGSG-NLuc (RLU): 53700 RLU

B7: CD8SP-FMC63-vL-E-Coil-[hTCRb-KACIAH]-F-P2A-SP-FMC63-vH-K-coil-[hTCRa-CSDVP]-F-F2A-PAC (other)
TCR beta: B6 TCR beta with P108E, G109V, G110A, G111A, G112L, S113E, P114R
TCR alpha: B6 TCR alpha with P121R, G122V, G123A, G124A, G125L, S126K, P127E
notes: Polyprotein PRT 12434; also called 040617-B09
CD19-GGSG-NLuc (RLU): 35700 RLU

B8: CD8SP-FMC63-vL-[hTCRa-CSDVP]-F-F2A-SP-FMC63-vH-[hTCRb-KACIAH]-F-P2A-PAC (other)
TCR alpha: DIQMTQTTSSLSASLGDRVTISCRASQDISKYLNWYQQKPDGTVKLLIYHTSRLHSGVPSRFSGSGSGTDYSLTISNLEQEDIATYFCQQGNTLPYTFGGGTKLEITIQNPDPAVYQLRDSKSSDKSVCLFTDFDSQTNVSQSKDSDVYITDKCVLDMRSMDFKSNSAVAWSNKSDFACANAFNNSIIPEDTFFPSSDVPCDVKLVEKSFETDTNLNFQNLSVIGFRILLLKVAGFNLLMTLRLWSS
TCR beta: EVKLQESGPGLVAPSQSLSVTCTVSGVSLPDYGVSWIRQPPRKGLEWLGVIWGSETTYYNSALKSRLTIIKDNSKSQVFLKMNSLQTDDTAIYYCAKHYYYGGSYAMDYWGQGTSVTVSSEDLKNVFPPEVAVFEPSKAEIAHTQKATLVCLATGFYPDHVELSWWVNGKEVHSGVCTDPQPLKEQPALNDSRYCLSSRLRVSATFWQNPRNHFRCQVQFYGLSENDEWTQDRAKPVTQIVSAEAWGRADCGITSASYHQGVLSATILYEILLGKATLYAVLVSALVLMAMVKRKDSRG
notes: Polyprotein PRT 12469; also called 022217-F01
CD19-GGSG-NLuc (RLU): 21300 RLU

B9: CD8SP-FMC63-vL-[hTCRb-R18A22]-F-P2A-SP-FMC63-vH-Myc4-[hTCRa-SD]-F-F2A-PAC (other)
TCR beta: B4 TCR beta with E125R, S129A, C164S
TCR alpha: B5 TCR alpha
notes: Polyprotein PRT 12439; also called 112116-R08
CD19-GGSG-NLuc (RLU): 7570 RLU

B10: CD8SP-FMC63-vL-Myc2-[hTCRb-R18A22]-F-P2A-SP-FMC63-vH-Myc4-[hTCRa-SD]-F-F2A-PAC (other)
TCR beta: DIQMTQTTSSLSASLGDRVTISCRASQDISKYLNWYQQKPDGTVKLLIYHTSRLHSGVPSRFSGSGSGTDYSLTISNLEQEDIATYFCQQGNTLPYTFGGGTKLEITEQKLISEEDLGSGEDLKNVFPPEVAVFEPSRAEIAHTQKATLVCLATGFYPDHVELSWWVNGKEVHSGVSTDPQPLKEQPALNDSRYCLSSRLRVSATFWQNPRNHFRCQVQFYGLSENDEWTQDRAKPVTQIVSAEAWGRADCGFTSESYQQGVLSATILYEILLGKATLYAVLVSALVLMAMVKRKDSRG
TCR alpha: B5 TCR alpha
notes: Polyprotein PRT 12440; also called 112116-S08
CD19-GGSG-NLuc (RLU): 4480 RLU

B11: CD8SP-FMC63-vL-[hTCRb-RC]-F-P2A-SP-FMC63-vH-[hTCRa-CSDVP]-F-F2A-PAC (other)
TCR beta: B4 TCR beta with E125R
TCR alpha: EVKLQESGPGLVAPSQSLSVTCTVSGVSLPDYGVSWIRQPPRKGLEWLGVIWGSETTYYNSALKSRLTIIKDNSKSQVFLKMNSLQTDDTAIYYCAKHYYYGGSYAMDYWGQGTSVTVSSIQNPDPAVYQLRDSKSSDKSVCLFTDFDSQTNVSQSKDSDVYITDKCVLDMRSMDFKSNSAVAWSNKSDFACANAFNNSIIPEDTFFPSSDVPCDVKLVEKSFETDTNLNFQNLSVIGFRILLLKVAGFNLLMTLRLWSS
notes: Polyprotein PRT 12445; also called 121516-U07
CD19-GGSG-NLuc (RLU): 12600 RLU

B12: CD8SP-FMC63-vL-[hTCRb-KACIAH]-F-P2A-SP-FMC63-vH-[hTCRa-CSDVP]-F-F2A-PAC (other)
TCR beta: B4 TCR beta with E125K, S129A, F240I, E243A, Q246H
TCR alpha: B11 TCR alpha
notes: Polyprotein PRT 12468; also called 022217-E01
CD19-GGSG-NLuc (RLU): 9760 RLU

B13: CD8SP-FMC63-vL-[hTCRb-R18]-F-P2A-SP-FMC63-vH-Myc4-[hTCRa-SD]-F-F2A-PAC (other)
TCR beta: B4 TCR beta with E125R, C164S
TCR alpha: B5 TCR alpha
notes: Polyprotein PRT 12442; also called 112116-U08
CD19-GGSG-NLuc (RLU): 3910 RLU
